Assay results taken from patent publication US20160272716A1 (AGENSYS, published 2016).

Legend:
[1] = molecular target: T1, human FLT3 expressed on the cell surface (human, UniProt P36888 27-993); assay: FACS, biotinylated isotype control 10 ug/ml, Streptavidin-PE, REH cells (ALL)
T1 construct: FLT3 on human leukemia cell lines, on recombinant cells and on primary blood cells; also called Flk2; STK1

[2] = molecular target: T1, human FLT3 expressed on the cell surface; assay: FACS, biotinylated isotype control 10 ug/ml, Streptavidin-PE, EOL-1 cells (AML)
[3] = molecular target: T1, human FLT3 expressed on the cell surface; assay: FACS, biotinylated isotype control 10 ug/ml, Streptavidin-PE, PL-21 cells (AML)
[4] = molecular target: T1, human FLT3 expressed on the cell surface; assay: FACS, biotinylated isotype control 10 ug/ml, Streptavidin-PE, SEM cells (B-ALL)
[5] = molecular target: T1, human FLT3 expressed on the cell surface; assay: FACS, biotinylated isotype control 10 ug/ml, Streptavidin-PE, SKM-1 cells (AML)
[6] = molecular target: T1, human FLT3 expressed on the cell surface; assay: FACS, biotinylated isotype control 10 ug/ml, Streptavidin-PE, THP-1 cells (AML)
[7] = molecular target: T1, human FLT3 expressed on the cell surface; assay: FACS, biotinylated isotype control 10 ug/ml, Streptavidin-PE, NALM-1 cells (CML)
[8] = molecular target: T1, human FLT3 expressed on the cell surface; assay: FACS, biotinylated isotype control 10 ug/ml, Streptavidin-PE, MOLM-13 cells (AML)
[9] = molecular target: T1, human FLT3 expressed on the cell surface; assay: FACS, biotinylated isotype control 10 ug/ml, Streptavidin-PE, MV-4-11 cells (AML)
[10] = molecular target: T1, human FLT3 expressed on the cell surface; assay: FACS, biotinylated isotype control 10 ug/ml, Streptavidin-PE, OCI-AML2 cells (AML)
[11] = molecular target: T1, human FLT3 expressed on the cell surface; assay: FACS, biotinylated isotype control 10 ug/ml, Streptavidin-PE, RS4;11 cells (B-ALL)
[12] = molecular target: T1, human FLT3 expressed on the cell surface; assay: FACS, biotinylated isotype control 10 ug/ml, Streptavidin-PE, MONOMAC-1 cells (AML)
[13] = molecular target: T1, human FLT3 expressed on the cell surface; assay: competition FACS on MOLM-13 cells: FL titrated 0.1 to 100 ng/ml, 30 min pre-incubation; displaced antibody: biotinylated cHv62-1b37.1 at 10 ug/ml
Method: (§1) In another experiment, The ability of anti-FLT3 antibodies, CHv62.21 and v62-1b37.1, to bind to FLT3 expressed on the surface of human leukemia MOLM-13 cell line was evaluated in the presence of human FLT3 Ligand (hFL). Isotype control antibody, AGS91.1-pAF, was used as a negative control.
(§2) Briefly, The MOLM-13 cells were seeded at a density of 50,000 cells per well onto round-bottom 96 well plates. The plates were washed one time with 150 μl per well of PBS. The cells were Fc blocked (20 μg/mL) at a volume of 50 μl per well in FACS buffer (PBS+2% FBS+0.1% sodium azide) to reduce non-specific binding. Cells were incubated at 4° C. for 15 minutes. Human FLT3 Ligand was added to appropriate wells at 100 ng/mL and serially diluted 1:2 across the plate for a total of 11 points. Cells were incubated for 30 minutes at 4° C. prior to adding biotinylated FLT3 antibodies. After incubation, the biotinylated anti-FLT3 antibodies and isotype control antibody were prepared in FACS buffer at 10 μg/mL and 1 μg/mL and 25 μl was added to wells and incubated for 1 hour at 4° C. Cells were washed two times with FACS buffer and Streptavidin-PE (Jackson immune) was added 100 μl per well and incubated for 1 hour at 4° C. Cells were washed two times with FACS buffer and read on the Attune Cytometer (Life technologies) and analyzed in FlowJo (Tree Star) software.

[14] = molecular target: T1, human FLT3 expressed on the cell surface; assay: FACS on MOLM-13 cells: 30 min pre-incubation with human FLT3 ligand, then biotinylated antibody, streptavidin-PE
Method: as §1, §2

[15] = molecular target: T1, human FLT3 expressed on the cell surface; assay: flow cytometry, cell surface FLT3
[16] = molecular target: T1, human FLT3 expressed on the cell surface; assay: FACS, biotinylated antibody 10 ug/ml, Streptavidin-PE, REH cells (ALL)
Method: (§3) CHv62.21 was tested for binding to AML and B-ALL cell lines grown in vitro. (See, FIG. 15A-M). Briefly, CHv62.21 and an isotype matched control antibody were biotinylated using NHS LC biotin. In vitro, exponentially grown cancer cell lines were used for all experiments. Cells were harvested by and washed by centrifugation. Cells were Fc blocked to reduce non-specific binding. Antibodies were diluted to 10 ug/ml final concentration and co-incubated with cells at 4° C. for 1 hour. At the end of the incubation, cells were washed and incubated with secondary detection Streptavidin-PE antibody at a final 1:200 (2.5 ug/ml) dilution for 1 hour at 4° C. After washing un-bound secondary antibody, cells were analyzed by FACS and geometric mean fluorescence was determined and reported. Fluorescence ratio was calculated as follows: Geo mean cHv62.21/Geo mean isotype control=MFR, a measure of fold expression above isotype control.
(§4) Geometric Mean values and Mean Florescence ratios (MFR) values were obtained (Table VI) and histograms are shown (FIG. 15A-M).

[17] = molecular target: T1, human FLT3 expressed on the cell surface; assay: FACS, biotinylated antibody 10 ug/ml, Streptavidin-PE, EOL-1 cells (AML)
Method: as §3, §4

[18] = molecular target: T1, human FLT3 expressed on the cell surface; assay: FACS, biotinylated antibody 10 ug/ml, Streptavidin-PE, PL-21 cells (AML)
Method: as §3, §4

[19] = molecular target: T1, human FLT3 expressed on the cell surface; assay: FACS, biotinylated antibody 10 ug/ml, Streptavidin-PE, SEM cells (B-ALL)
Method: as §3

[20] = molecular target: T1, human FLT3 expressed on the cell surface; assay: FACS, biotinylated antibody 10 ug/ml, Streptavidin-PE, SKM-1 cells (AML)
Method: as §3, §4

[21] = molecular target: T1, human FLT3 expressed on the cell surface; assay: FACS, biotinylated antibody 10 ug/ml, Streptavidin-PE, THP-1 cells (AML)
Method: as §3, §4

[22] = molecular target: T1, human FLT3 expressed on the cell surface; assay: FACS, biotinylated antibody 10 ug/ml, Streptavidin-PE, NALM-1 cells (CML)
Method: as §3

[23] = molecular target: T1, human FLT3 expressed on the cell surface; assay: FACS, biotinylated antibody 10 ug/ml, Streptavidin-PE, MOLM-13 cells (AML)
Method: as §3

[24] = molecular target: T1, human FLT3 expressed on the cell surface; assay: FACS, biotinylated antibody 10 ug/ml, Streptavidin-PE, MV-4-11 cells (AML)
Method: as §3, §4

[25] = molecular target: T1, human FLT3 expressed on the cell surface; assay: FACS, biotinylated antibody 10 ug/ml, Streptavidin-PE, OCI-AML2 cells (AML)
Method: as §3, §4

[26] = molecular target: T1, human FLT3 expressed on the cell surface; assay: FACS, biotinylated antibody 10 ug/ml, Streptavidin-PE, RS4;11 cells (B-ALL)
Method: as §3, §4

[27] = molecular target: T1, human FLT3 expressed on the cell surface; assay: FACS, biotinylated antibody 10 ug/ml, Streptavidin-PE, MONOMAC-1 cells (AML)
Method: as §3, §4

T1 sequence (P36888 27-993 T227M limits assumed): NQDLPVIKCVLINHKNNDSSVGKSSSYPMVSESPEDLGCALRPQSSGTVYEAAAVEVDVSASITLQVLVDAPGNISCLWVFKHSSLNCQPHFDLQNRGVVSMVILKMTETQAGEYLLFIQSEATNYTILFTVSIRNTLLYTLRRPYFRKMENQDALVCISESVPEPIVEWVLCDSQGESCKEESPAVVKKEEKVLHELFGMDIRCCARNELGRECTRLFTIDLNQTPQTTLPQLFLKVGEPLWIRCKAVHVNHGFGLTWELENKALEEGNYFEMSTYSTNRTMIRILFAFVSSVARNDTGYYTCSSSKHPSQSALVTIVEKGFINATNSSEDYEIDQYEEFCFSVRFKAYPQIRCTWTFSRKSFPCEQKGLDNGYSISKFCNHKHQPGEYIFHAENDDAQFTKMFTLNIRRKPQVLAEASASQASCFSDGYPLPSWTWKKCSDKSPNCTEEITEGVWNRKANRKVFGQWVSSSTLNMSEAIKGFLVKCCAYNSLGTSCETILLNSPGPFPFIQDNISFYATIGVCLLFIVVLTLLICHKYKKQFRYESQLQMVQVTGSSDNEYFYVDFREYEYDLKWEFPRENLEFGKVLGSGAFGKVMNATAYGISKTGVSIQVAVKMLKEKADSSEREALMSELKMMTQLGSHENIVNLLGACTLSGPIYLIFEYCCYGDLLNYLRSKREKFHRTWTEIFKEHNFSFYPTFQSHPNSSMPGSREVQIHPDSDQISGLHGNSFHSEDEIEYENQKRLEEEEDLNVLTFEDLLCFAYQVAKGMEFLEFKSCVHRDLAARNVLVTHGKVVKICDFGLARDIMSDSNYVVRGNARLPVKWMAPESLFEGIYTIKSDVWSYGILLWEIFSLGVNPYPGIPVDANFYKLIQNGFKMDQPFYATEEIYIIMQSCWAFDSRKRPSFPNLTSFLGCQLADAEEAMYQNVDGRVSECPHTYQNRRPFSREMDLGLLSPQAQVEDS

Molecule: isotype matched control antibody (Example 9)
- Geometric Mean fluorescence [1]: 235
- Geometric Mean fluorescence [2]: 281
- Geometric Mean fluorescence [3]: 570
- Geometric Mean fluorescence [4]: 212
- Geometric Mean fluorescence [5]: 445
- Geometric Mean fluorescence [6]: 474
- Geometric Mean fluorescence [7]: 262
- Geometric Mean fluorescence [8]: 320
- Geometric Mean fluorescence [9]: 366
- Geometric Mean fluorescence [10]: 329
- Geometric Mean fluorescence [11]: 213
- Geometric Mean fluorescence [12]: 338

B1: human FLT3 ligand (ligand, UniProt P49771 27-185, looked up)
chain: TQDCSFQHSPISSDFAVKIRELSDYLLQDYPVTVASNLQDEELCGGLWRLVLAQRWMERLKTVAGSKMQGLLERVNTEIHFVTKCAFQPPPSCLRFVQTNISRLLQETSEQLVALKPWITRQNFSRCLELQCQPDSSTLPPPWSPRPLEATAPTAPQPP
modifications: biotinylated (Sulfo-NHS-LC-Biotin) in the Luminex assay
notes: later experiments say human FLT3 ligand; Treated as one molecule; also called hFL
- IC50 (read off the curve) [13]: ~10 ng/mL

B2: v62-1b37.1 (antibody, human IgG1, kappa, V domains shown)
VH: EVQLVESGGGVVRPGGSLRLSCAASGFTFDDYGMSWVRQAPGKGLEWVSGINWNGGSTGYADSVKGRFTISRDDAKNSLYLQMNSLRAEDTALYHCARDGYTYGPFDNWGQGTLVTVSS
VL: DIQMTQSPSSLSASVGDRVTITCRASQGIRNDLGWYQQKPGKAPKRLIYAASSLQSGVPSRFSGSGSGTEFTLTISSLQPEDFATYYCLQHNSYPYTFGQGTKLEIKR
modifications: biotinylated in the MOLM-13 FACS
notes: also called cHv62-1b37.1
- binding result [14]: binds

B3: v62-1b21 (hybridoma MAb) (antibody, V domains shown)
VH: EVQLVESGGGLVRPGGSLRLSCAASGFTFSGYSINWVRQAPGKGLEWVSSISSSSNYIYYADSVKGRFTISRDNAKNSLYLQMNSLRAEDTAVYYCAREGFIAGTTFDAFDIWGQGTMVTVSS
VL: DIQMTQSPSSLSASVGDRVTITCRASQGIRNDLGWYQQKPGKAPKRLIYAASSLQSGVPSRFSGSGSGTEFTLTISSLQPEDFATYYCLQHNGFPYTFGQGTKLEIKR
notes: also called AGS62.21; v62.21
- binding result [15]: binds

B4: CHv62.21 MAb (antibody, human IgG1, kappa, V domains shown)
VH: EVQLVESGGGLVRPGGSLRLSCAASGFTFSGYSINWVRQAPGKGLEWVSSISSSSNYIYYADSVKGRFTISRDNAKNSLYLQMNSLRAEDTAVYYCAREGFIAGTTFDAFDIWGQGTMVTVSS
VL: DIQMTQSPSSLSASVGDRVTITCRASQGIRNDLGWYQQKPGKAPKRLIYAASSLQSGVPSRFSGSGSGTEFTLTISSLQPEDFATYYCLQHNGFPYTFGQGTKLEIKR
modifications: C-terminal lysine deleted in most of the purified MAb; N-terminal pyroglutamate in a part of it; biotinylated with NHS LC biotin for the FACS of Table VI
notes: Recombinant, CHO-expressed, human IgG1 / kappa; variable regions from hybridoma v62-1b21; ATCC PTA-121831; also called cHv62-1b21.1
- MFR (Geo mean cHv62.21/Geo mean isotype control) [16]: 69 fold
- MFR (Geo mean cHv62.21/Geo mean isotype control) [17]: 50 fold
- MFR (Geo mean cHv62.21/Geo mean isotype control) [18]: 7 fold
- MFR (Geo mean cHv62.21/Geo mean isotype control) [19]: 623 fold
- MFR (Geo mean cHv62.21/Geo mean isotype control) [20]: 7 fold
- MFR (Geo mean cHv62.21/Geo mean isotype control) [21]: 42 fold
- MFR (Geo mean cHv62.21/Geo mean isotype control) [22]: 49 fold
- MFR (Geo mean cHv62.21/Geo mean isotype control) [23]: 44 fold
- MFR (Geo mean cHv62.21/Geo mean isotype control) [24]: 8 fold
- MFR (Geo mean cHv62.21/Geo mean isotype control) [25]: 17 fold
- MFR (Geo mean cHv62.21/Geo mean isotype control) [26]: 86 fold
- MFR (Geo mean cHv62.21/Geo mean isotype control) [27]: 34 fold
